The target of assay [1] is ACE2, membrane-anchored, endogenously expressed on VeroE6 cells (African green monkey (endogenous in VeroE6)). Nature of the assay: single-molecule force spectroscopy (AFM).
Assay [2] shares this target. Nature of the assay: single-molecule force spectroscopy (AFM) + kinetic model.

Usually Kd stands for the constant that tells how readily two partners part at equilibrium. Regarding “SARS-CoV-2 Delta variant RBD monomer (from UniProt P0DTC2) (domain or fragment)”, the Kd in assay [1] came to 0.97 nM.
In assay [1], “SARS-CoV-2 Delta variant Spike trimer (from UniProt P0DTC2) (natural protein)” displayed a Kd of 0.5 nM, an on-rate of three bonds of 23 s⁻¹, an on-rate of two bonds of 80 s⁻¹ and a percentage of one bond of 68.7%. In assay [2], the bond lifetime at 20 pN (calculated) was 460 s and the bond lifetime at zero force (calculated) is 42000 s.
“SARS-CoV-2 Omicron (B.1.1.529) variant RBD monomer (from UniProt P0DTC2) (domain or fragment)” had a Kd in assay [1] of 0.068 nM.
In assay [1], “SARS-CoV-2 Omicron (B.1.1.529) variant Spike trimer (from UniProt P0DTC2) (natural protein)” gave a Kd of 0.055 nM, an on-rate of two bonds of 49 s⁻¹, a percentage of one bond of 85.4% and a percentage of three bonds of 1%. The substance also yielded a percentage of two bonds in assay [1] of 13.6%. In assay [2], the bond lifetime at 20 pN (calculated) is 960 s and the bond lifetime at zero force (calculated) was 370000 s.
